According to patent US20240165226A1, “COMBINATION TREATMENT OF CD38-EXPRESSING TUMORS” (GENMAB A/S, priority 2006, published 2024):

Columns and labels:
[1] = system: EBV transformed chimpanzee B cells; assay: Binding to EBV transformed chimpanzee B cells by flow cytometry; conditions: FITC-labeled antibody
Procedure: After harvesting and counting, EBV transformed chimpanzee B cells (received from Biomedical Primate Research Centre, Department Immunobiology, Rijswijk, The Netherlands) were resuspended (1×10^6 cells/ml) in PBS-BSA (PBS supplemented with 0.1% BSA and 0.02% Na-azide). Then, cells were put in 96-well V-bottom plates (100 μl/well) and washed twice in PBS-BSA. Thereafter, 50 μl FITC-labeled -005 antibody solution in PBS-BSA was added to the cells (4° C., 30 min). Cells were washed three times and specific binding of -005 to EBV transformed chimpanzee B cells was detected by flow cytometry. FITC labeled HuMab-KLH (a human monoclonal antibody against KLH (keyhole limpet haemocyanin) generated by Genmab B.V., Utrecht, The Netherlands by use of the immunization protocols described elsewhere herein) was used as a control.

[2] = system: plasma cells in implanted synovial tissue; assay: RA-SCID mouse model, synovial tissue xenografts; format: in vivo, SCID-mice; conditions: 12 mg/kg i.v. day 8, day 14
Excerpt: SCID-mice, strain C.B.-17/lcrCrl-SCID-bg, male/female, 4-12 weeks, purchased from Charles River Laboratories Nederland (Maastricht, the Netherlands) were kept in IVC cages under standard conditions of temperature and light, and were fed laboratory chow and water ad libitum. Prior to implantation, mice (three mice in each experimental group, day 0) were anesthetized by intraperitoneal injection of ketamine (NIMATEK, EuroVet) and xylazine (Rompun, Bayer) at ratio 1:1. A small incision of the skin was made using surgical scissors. […] On day 1 of the experiment, remaining synovial tissue was analyzed in order to check for B cells in the inflamed synovial transplants. -005 (12 mg/kg) or control antibody (anti-KLH, 30 mg/kg) was injected (i.v.), in a volume of 200 μl on day 8 of the experiment. […]
Scoring of stained synovial tissue xenografts was performed in a blinded fashion by two trained persons. […] The staining intensity in the other sections was then scored on a scale of 0 to 8, relative to the reference section.
Scoring of staining intensity was analyzed by Kruskal-Wallis one-way ANOVA followed by Dunn's multiple comparison test using Graph Pad Prism version 4.01 (Graph Pad software, Inc., San Diego, CA, USA).

HA-tagged CD38 = molecular target: T1, HA-tagged CD38 (Homo sapiens, UniProt P28907); assay: Surface plasmon resonance (Biacore 3000); format: binding; conditions: 25° C., mean of 3 experiments±SD
T1 construct: The extracellular domain of human CD38 was amplified from plasmid pCIpuroCD38; made in house
Procedure: Binding of -003 and -005 to CD38 was tested using surface plasmon resonance. Briefly, purified antibodies were immobilized on a CM-5 sensor chip (Biacore, Uppsala, Sweden) via anime coupling. HA-tagged CD38 (see Example 3) was flowed over, and the binding of antigen to mAb was detected by a change in refractive index at the surface of the chip using a Biacore 3000 (Biacore).

[3] = molecular target: T2, CHO cells transfected with human CD38 (CHO-CD38 cells) (Homo sapiens, UniProt P28907); assay: Enzymatic activity of cellular expressed CD38 (cGDPR production); format: cell-based; conditions: after 156 minutes; for cGDPribose production: CHO-CD38 cells
T2 construct: expressed in transfected cells; host or cells: CHO cells
Procedure: The enzymatic activity of cellular expressed human CD38 was measured in an assay essentially as described in Graeff et al., J. Biol. Chem. 269, 30260-30267 (1994). Briefly, substrate NGD (80 μM) was incubated with […] CHO cells transfected with human CD38 (CHO-CD38 cells) in a buffer containing 20 mM Tris-HCl, pH 7.0 supplemented with 30 μg/ml IgG1. The production of cGDPR can be monitored spectrophotometrically at the emission wavelength of 410 nm (excitation at 300 nm). In this example an excitation filter of 340±60 nm and an emission filter of 430±8 nm was used. To test the effect of -005 and -003 on the enzymatic activity of cellular expressed CD38, CHO-CD38 cells were pre-incubated for 15′ at room temp. with various concentrations (30, 3, 0.3 and 0.03 μg/ml) of the different antibodies before adding the substrate NGD. The production of cGDPR was recorded at different time points after addition of substrate NGD (3, 6, 9, 12, 30, 45, 60, 112 and 156 min).

How did the “binding to EBV transformed chimpanzee B cells” value [1] turn out when “-005: human monoclonal IgG1 anti-CD38 antibody, VL region SEQ ID No:12 and VH region SEQ ID No:17” was run?
The value was “dose dependent binding”.

What about the “numbers of anti-CD38-positive plasma cells in xenografts” value [2] of the same substance?
The value was “reduced”.

And the “numbers of plasma cells (anti-CD138 staining) in xenografts” value [2]?
The value was “reduced numbers of plasma cells”.

And the KA (HA-tagged CD38)?
Its KA is 1.7e+08 ± 3.68e+07 M⁻¹.

What about the Kd (HA-tagged CD38) of the same substance?
Its Kd is 6.06 nM.

And the ka (HA-tagged CD38)?
Its ka is 88800 ± 19500 M⁻¹ s⁻¹.

And the kd (HA-tagged CD38)?
Its kd is 0.000522 ± 1.16e-05 s⁻¹.

And the cGDPribose production ([3]; 0.03 μg/ml antibody)?
Its cGDPribose production is 104 % of NGD control.

And the cGDPribose production ([3]; 0.3 μg/ml antibody)?
Its cGDPribose production is 100 % of NGD control.

What about the cGDPribose production ([3]; 3 μg/ml antibody) of the same substance?
The cGDPribose production was 82 % of NGD control.

And the “reduced production of cGDPR” value ([3]; 3 μg/ml)?
The value was 18%.

What about the cGDPribose production ([3]; 30 μg/ml antibody) of the same substance?
Its cGDPribose production is 79 % of NGD control.

What about the “reduced production of cGDPR” value ([3]; 30 μg/ml) of the same substance?
The value was 21%.
